For experiment [1], the target named is CD80 cytosolic tail peptide (20-mer). Nature of the experiment: ELISA. Background: ELISA stands for enzyme-linked immunosorbent assay.
Experiment [2] deals with CD86 cytosolic tail peptide (20-mer). Nature of the experiment: ELISA.
Experiment [3] addresses rF2-Nef protein (HIV-1 Subtype C), full length wild type (HIV-1 subtype C (F2 isolate)). Kind of experiment: MST.

We go through 3 molecules from doi:10.1101/2021.09.07.459239.

For the molecule “rF2-Nef protein (HIV-1 Subtype C), full length wild type (natural protein)”, the fold increase of ELISA signal over CD74 peptide or no-peptide wells in experiment [1] and in experiment [2] was 4 fold in each case.
One may read the Kd as a measure of binding affinity in units of concentration. A high value points to a looser complex. In experiment [3], LWKWKKKKRPRNSYKCGTNT [CD86 cytosolic tail peptide (20-mer)] showed a dissociation constant Kd of 0.112 µM.
Same read-out and setting: next, PRCRERRRNERLRRESVRPV [CD80 cytosolic tail peptide (20-mer)]: 27 µM.
